Measurements published in patent US20190255165A1 (AMAL THERAPEUTICS, published 2019).

B1: EDAZ13Mad5 (other)
chain: MHHHHHHNIDRPKGLAFTDVDVDSIKIAWESPQGQVSRYRVTYSSPEDGIRELFPAPDGEDDTAELQGLRPGSEYTVSVVALHDDMESQPLIGIQSTKRYKNRVASRKSRAKFKQLLQHYREVAAAKSSENDRLRLLLKESLKISQAVHAAHAEINEAGREVVGVGALKVPRNQDWLGVPRFAKFASFEAQGALANIAVDKANLDVEQLESIINFEKLTEWTGS
notes: Recombinant fusion protein with N-terminal MHHHHHH; 25,057 Da; also called fusion protein of TLR4 peptide agonist EDA (N-terminal), Z13 and MAD5 cargo
B2: AnaxaZ13Mad5 (other)
chain: MHHHHHHSTVHEILCKLSLEGDHSTPPSAYGSVKPYTNFDAEKRYKNRVASRKSRAKFKQLLQHYREVAAAKSSENDRLRLLLKESLKISQAVHAAHAEINEAGREVVGVGALKVPRNQDWLGVPRFAKFASFEAQGALANIAVDKANLDVEQLESIINFEKLTEWTGS
notes: Recombinant fusion protein with N-terminal MHHHHHH; 18973 Da; also called AnaxZ13Mad5; fusion protein with Anaxa at the N-terminal position, Z13 and MAD5 cargo
B3: Z13Mad5Anaxa (other)
chain: MHHHHHHKRYKNRVASRKSRAKFKQLLQHYREVAAAKSSENDRLRLLLKESLKISQAVHAAHAEINEAGREVVGVGALKVPRNQDWLGVPRFAKFASFEAQGALANIAVDKANLDVEQLESIINFEKLTEWTGSSTVHEILCKLSLEGDHSTPPSAYGSVKPYTNFDAE
notes: Recombinant fusion protein with N-terminal MHHHHHH; 18973 Da; also called fusion protein of cell-penetrating peptide Z13, MAD5 cargo and TLR peptide agonist Anaxa (C-terminal)

Key:
human TLR4 = target: T1, human TLR4 (human, UniProt O00206 24-839); assay: inferred from IL-8 secretion (ELISA) of HEK-hTLR4 cells, 1 µM
T1 construct: whole, on cells; Presented on HEK-hTLR4 cells; also called hTLR4
T1 sequence (O00206 24-839): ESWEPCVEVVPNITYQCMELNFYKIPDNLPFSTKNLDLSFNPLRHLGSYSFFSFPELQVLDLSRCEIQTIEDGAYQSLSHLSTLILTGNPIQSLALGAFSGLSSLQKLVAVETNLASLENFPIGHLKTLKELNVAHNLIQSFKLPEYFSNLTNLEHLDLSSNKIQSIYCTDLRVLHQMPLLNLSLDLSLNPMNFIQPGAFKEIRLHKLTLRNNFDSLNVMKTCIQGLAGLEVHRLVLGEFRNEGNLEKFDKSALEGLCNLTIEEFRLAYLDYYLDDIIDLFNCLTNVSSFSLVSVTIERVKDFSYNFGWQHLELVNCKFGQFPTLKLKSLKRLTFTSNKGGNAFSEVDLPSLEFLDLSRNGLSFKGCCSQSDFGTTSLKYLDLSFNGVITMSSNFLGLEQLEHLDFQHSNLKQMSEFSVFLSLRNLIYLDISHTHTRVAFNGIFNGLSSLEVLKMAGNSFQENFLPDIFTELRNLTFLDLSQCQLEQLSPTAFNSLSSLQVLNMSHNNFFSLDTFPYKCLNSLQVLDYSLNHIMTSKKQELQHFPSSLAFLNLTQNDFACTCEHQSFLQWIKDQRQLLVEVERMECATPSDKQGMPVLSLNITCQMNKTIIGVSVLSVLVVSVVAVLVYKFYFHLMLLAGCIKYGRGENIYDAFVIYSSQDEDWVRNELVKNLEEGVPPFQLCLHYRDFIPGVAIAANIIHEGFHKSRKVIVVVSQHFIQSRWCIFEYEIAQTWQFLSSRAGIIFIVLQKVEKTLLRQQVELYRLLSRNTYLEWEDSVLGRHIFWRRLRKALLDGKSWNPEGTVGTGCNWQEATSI

human TLR2 = target: T2, human TLR2 (human, UniProt O60603 21-784); assay: inferred from HEK-Blue hTLR2 reporter cells (QuantiBlue OD and IL-8 ELISA)
T2 construct: whole, on cells; Presented on HEK-Blue hTLR2 reporter cells; also called hTLR2
T2 sequence (O60603 21-784): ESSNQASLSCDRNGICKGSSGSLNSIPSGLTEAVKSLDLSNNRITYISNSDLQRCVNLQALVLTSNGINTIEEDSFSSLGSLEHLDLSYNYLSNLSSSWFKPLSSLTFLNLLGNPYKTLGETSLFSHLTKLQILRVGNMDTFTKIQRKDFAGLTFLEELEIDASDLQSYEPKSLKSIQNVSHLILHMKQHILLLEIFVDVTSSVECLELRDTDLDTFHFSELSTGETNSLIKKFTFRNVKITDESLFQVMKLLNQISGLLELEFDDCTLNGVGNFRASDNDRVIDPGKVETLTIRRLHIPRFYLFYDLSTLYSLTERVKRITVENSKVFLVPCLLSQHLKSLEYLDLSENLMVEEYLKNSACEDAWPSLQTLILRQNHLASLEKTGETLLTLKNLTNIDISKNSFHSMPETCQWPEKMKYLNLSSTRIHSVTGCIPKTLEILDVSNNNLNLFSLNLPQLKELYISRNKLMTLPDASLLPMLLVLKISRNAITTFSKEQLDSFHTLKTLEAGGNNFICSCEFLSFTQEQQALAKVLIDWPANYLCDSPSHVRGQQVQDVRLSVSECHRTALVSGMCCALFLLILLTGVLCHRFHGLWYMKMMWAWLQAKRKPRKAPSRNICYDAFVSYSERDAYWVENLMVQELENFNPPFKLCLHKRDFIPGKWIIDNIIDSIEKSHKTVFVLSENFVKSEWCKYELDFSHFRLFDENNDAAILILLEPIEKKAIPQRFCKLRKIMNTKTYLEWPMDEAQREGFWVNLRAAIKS

Row | Binder | binding result (human TLR4) | binding result (human TLR2)
1 | B1 | binds | 
2 | B2 |  | binds
3 | B3 | binds | binds
